We go through one substance from paper PMC5342696.

In the test the target is membrane IgG (mIgG) on IgG-expressing B-cell lines (human (endogenous in CRL 2632 and CRL 2289)) [IgG part: P01857]. As to the kind of experiment: hemadsorption/hemagglutination (protein G-RBC rosetting); mIgG-expressing B-cells exposed to protein G-RBCs at 4°C without added mAb, rosettes scored by phase contrast microscopy.

In the case of “protein G on red blood cells (protein G-RBC) (from UniProt P19909 34-562) (natural protein)”, the HA background (percent rosetted cells) is below 30%.
